For one protein, Km, kcat and kcat/Km results are on record in patent publication US5580854A, “Substrate-related peptidyl-aldehyde inhibitors of the proteolytic activity of the multicatalytic proteinase complex” (Mount Sinai School of Medicine of The City University of …, priority 1994, dated 1996).

Holding throughout (assay): Kinetic parameters for degradation of synthetic substrates by the BrAAP component
Holding throughout (assay type): biochemical, bovine

Substrate in data set [1]: CC(C)C[C@H](NC(=O)OCc1ccccc1)C(=O)NCC(=O)N[C@@H](C)C(=O)N[C@@H](CC(C)C)C(=O)N[C@@H](C)C(=O)Nc1ccc(C(=O)O)cc1
The note with it: other: [S] 1.6-8.0; mean of 2 determinations; from plots of 1/v vs 1/s. An excerpt: (§1) A coupled two step reaction in the presence of excess aminopeptidase N (AN) was used for the determination of the BrAAP and SNAAP activities as described previously (Orlowski et al., Biochemistry 32:1563-1572 (1993)). Aminopeptidase N was purified from hog kidneys as described by Pfleiderer, Meth. Enzymol. 19:514-521 (1970) and freed from the contaminating metalloendopeptidase (EC 3.4.24.11) as previously described (Almenoff & Orlowski, Biochemistry 22:590-599 (1983)).
(§2) The flexibility of the amino acid residue in the P4 position of the inhibitors of the present invention is based on results of substrate specificity studies of the BrAAP component. Activities towards various analogs of the prototypic BrAAP substrate Cbz-Gly-Pro-Ala-Leu-Gly-pAB were determined using the coupled two-step reaction carried out in the presence of AN, as described in Example 4. The BrAAP substrates tested included the following:
(§3) Data represent mean values for 2 separate determinations. For substrates
(§4) with MichaelisMenten kinetics, Km and kcat were determined from
(§5) the regression line fitted to plots of 1/v vs 1/s. Kcat was estimate
(§6) assuming a molecular mabs of 700 KDa and assuming one active site per
(§7) molecule. […] The apparent Km for
(§8) this substrate is taken as the substrate concentration at half of the
(§9) Vmax observed. kcat for this substrate was calculated assuming
(§10) Vmax of 300 U/mg and assuming one active site per molecule of MPC.

Substrate in data set [2]: CC(C)C[C@H](NC(=O)[C@H](C)NC(=O)CNC(=O)[C@@H]1CCCN1C(=O)OCc1ccccc1)C(=O)N[C@@H](C)C(=O)Nc1ccc(C(=O)O)cc1
The note with it: other: [S] 1.6-8.0; mean of 2 determinations; from plots of 1/v vs 1/s.
Description: as §1, §2, §3, §4, §5, §6, §7, §8, §9, §10

Substrate in data set [3]: CC(C)C[C@H](NC(=O)[C@H](C)NC(=O)CNC(=O)CNC(=O)OCc1ccccc1)C(=O)N[C@@H](C)C(=O)Nc1ccc(C(=O)O)cc1
The note with it: other: [S] 0.8-4.8; sigmoidal kinetics; substrate concentration at half of the Vmax observed.
Description: as §1, §2, §3, §4, §5, §6, §7, §8, §9, §10

B1: BRAAP component of the MPC (Bos taurus) (protein)
chain 1: TTTLAFKFRHGVIVAADSRATAGAYIASQTVKKVIEINPYLLGTMAGGAADCSFWERLLARQCRIYELRNKERISVAAASKLLANMVYQYKGMGLSMGTMICGWDKRGPGLYYVDSEGNRISGATFSVGSGSVYAYGVMDRGYSYDLEVEEAYDLARRAIYQATYRDAYSGGSVSLYHVREDGWIRVSSDNVADLHDKYSGSTH
chain 2: TTIMAVQFDGGVVLGADSRTTTGSYIANRVTDKLTPIHDRIFCCRSGSAADTQAVADAVTYQLGFHSIELNEPPLVHTAASLFKEMCYRYREDLMAGIIIAGWDPQEGGQVYSVPMGGMMVRQPFAIGGSGSSYIYGYVDATYREGMTKEECLQFTANALALAMERDGSSGGVIRLAAIAEPGVERQVLLGDQIPKFTIATLPPL
chain 3: TTIAGVVYKDGIVLGADTRATEGMVVADKNCSKIHFISPNIYCCGAGTAADTDMTTQLISSNLELHSLSTGRLPRVVTANRMLKQMLFRYQGYIGAALVLGGVDVTGPHLYSIYPHGSTDKLPYVTMGSGSLAAMAVFEDKFRPDMEEEEAKKLVSEAIAAGIFNDLGSGSNIDLCVISKSKLDFLRPYSVPNKKGTRFGRYRCEKGTNAVLTEKVTTLEIEVLEETVQTMDTS
notes: The MPC was isolated from frozen bovine pituitaries; tissue PelFreeze, Inc. (Rogers, Ark.) (supplier of the tissue; the enzyme was purified in house); host or cells: bovine pituitaries
The Km is the concentration of substrate that gives half-maximal velocity. As a reminder, the kcat is the number of substrate molecules converted per active site and unit of time at saturation. Broadly, the kcat/Km is the second-order rate constant that governs catalysis at low substrate concentration. B1: in data set [1], the Km amounted to 30 mM, the kcat turned out to be 24 s⁻¹ and the kcat/Km came to 820 s⁻¹ M⁻¹. In data set [2], the Km came out at 8.7 mM, the kcat turned out to be 8.4 s⁻¹ and the kcat/Km amounted to 960 s⁻¹ M⁻¹. Also, in data set [3], the Km came out at 2500 µM, the kcat amounted to 58 s⁻¹ and the kcat/Km is reported as 23,300 s^-1 M^-1.
